Data reported in patent US20250171562A1.

molecular target: mixture of three Der p 2 specific recombinant human IgE clones H10, H12, P4E (human) (UniProt P01854); assay: RBL-SX38 IgE displacement, FACS
Sequence (P01854 other isoform, or with tags, fused parts or gaps): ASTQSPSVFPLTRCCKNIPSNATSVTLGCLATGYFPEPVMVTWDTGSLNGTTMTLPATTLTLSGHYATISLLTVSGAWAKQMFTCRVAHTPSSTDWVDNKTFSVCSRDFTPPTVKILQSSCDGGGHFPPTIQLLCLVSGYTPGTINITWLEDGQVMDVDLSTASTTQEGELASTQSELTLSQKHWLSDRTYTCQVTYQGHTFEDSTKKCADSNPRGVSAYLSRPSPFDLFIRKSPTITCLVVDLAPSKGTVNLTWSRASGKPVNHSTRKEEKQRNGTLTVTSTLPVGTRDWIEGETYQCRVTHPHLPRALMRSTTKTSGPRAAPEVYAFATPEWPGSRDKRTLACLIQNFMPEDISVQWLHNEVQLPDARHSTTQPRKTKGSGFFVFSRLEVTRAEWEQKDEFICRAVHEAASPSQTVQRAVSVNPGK

Row | Binder | EC50 [nM] | Max effect/effect 1 µM [%]
1 | CIgG4E2A1(G4S)2 (Fc fusion) chain 1: GPPCPPCPAPEFLGGPSVFLFPPKPKDTLMISRTPEVTCVVVDVSQEDPEVQFNWYVDGVEVHNAKTKPREEQFNSTYRVVSVLTVLHQDWLNGKEYKCKVSNKGLPSSIEKTISKAKGQPREPQVYTLPPCQEEMTKNQVSLWCLVKGFYPSDIAVEWESNGQPENNYKTTPPVLDSDGSFFLYSRLTVDKSRWQEGNVFSCSVMHEALHNHYTQKSLSLSLGKGGGGSGGGGSDVQLQESGGGLVQAGGSLRLSCAASGRTISRYAVGWFRRPPAKEREFIGINWSGGSTTYADSAEGRFIISRDNAKNTVYLQMNSLKPEDTAVYYCAVPSVLVQGGISNPSQYDYWGQGTQVTVS chain 2: GPPCPPCPAPEFLGGPSVFLFPPKPKDTLMISRTPEVTCVVVDVSQEDPEVQFNWYVDGVEVHNAKTKPREEQFNSTYRVVSVLTVLHQDWLNGKEYKCKVSNKGLPSSIEKTISKAKGQPREPQVCTLPPSQEEMTKNQVSLSCAVKGFYPSDIAVEWESNGQPENNYKTTPPVLDSDGSFFLVSRLTVDKSRWQEGNVFSCSVMHEALHNHYTQKSLSLSLGKGGGGSGGGGSEVQLLESGGGLVQPGGSLRLSCAASGFTFGNYDMAWVRQAPGKRPEWVSSIDTGGDITHYADSVKGRFTISRDNAKNTLYLQMNSLRPEDTAVYWCATDEEYALGPNEFDYYGQGTLVTVSS | 572 | 45
2 | NIgG4E2A1(RS) (Fc fusion) chain 1: DVQLQESGGGLVQAGGSLRLSCAASGRTISRYAVGWFRRPPAKEREFIGINWSGGSTTYADSAEGRFIISRDNAKNTVYLQMNSLKPEDTAVYYCAVPSVLVQGGISNPSQYDYWGQGTQVTVSRSGPPCPPCPAPEFLGGPSVFLFPPKPKDTLMISRTPEVTCVVVDVSQEDPEVQFNWYVDGVEVHNAKTKPREEQFNSTYRVVSVLTVLHQDWLNGKEYKCKVSNKGLPSSIEKTISKAKGQPREPQVYTLPPCQEEMTKNQVSLWCLVKGFYPSDIAVEWESNGQPENNYKTTPPVLDSDGSFFLYSRLTVDKSRWQEGNVFSCSVMHEALHNHYTQKSLSLSLGK chain 2: EVQLLESGGGLVQPGGSLRLSCAASGFTFGNYDMAWVRQAPGKRPEWVSSIDTGGDITHYADSVKGRFTISRDNAKNTLYLQMNSLRPEDTAVYWCATDEEYALGPNEFDYYGQGTLVTVSSRSGPPCPPCPAPEFLGGPSVFLFPPKPKDTLMISRTPEVTCVVVDVSQEDPEVQFNWYVDGVEVHNAKTKPREEQFNSTYRVVSVLTVLHQDWLNGKEYKCKVSNKGLPSSIEKTISKAKGQPREPQVCTLPPSQEEMTKNQVSLSCAVKGFYPSDIAVEWESNGQPENNYKTTPPVLDSDGSFFLVSRLTVDKSRWQEGNVFSCSVMHEALHNHYTQKSLSLSLGK | 2 | 97
3 | CIgG4E2A1(RS) (Fc fusion) chain 1: GPPCPPCPAPEFLGGPSVFLFPPKPKDTLMISRTPEVTCVVVDVSQEDPEVQFNWYVDGVEVHNAKTKPREEQFNSTYRVVSVLTVLHQDWLNGKEYKCKVSNKGLPSSIEKTISKAKGQPREPQVYTLPPCQEEMTKNQVSLWCLVKGFYPSDIAVEWESNGQPENNYKTTPPVLDSDGSFFLYSRLTVDKSRWQEGNVFSCSVMHEALHNHYTQKSLSLSLGKRSDVQLQESGGGLVQAGGSLRLSCAASGRTISRYAVGWFRRPPAKEREFIGINWSGGSTTYADSAEGRFIISRDNAKNTVYLQMNSLKPEDTAVYYCAVPSVLVQGGISNPSQYDYWGQGTQVTVS chain 2: GPPCPPCPAPEFLGGPSVFLFPPKPKDTLMISRTPEVTCVVVDVSQEDPEVQFNWYVDGVEVHNAKTKPREEQFNSTYRVVSVLTVLHQDWLNGKEYKCKVSNKGLPSSIEKTISKAKGQPREPQVCTLPPSQEEMTKNQVSLSCAVKGFYPSDIAVEWESNGQPENNYKTTPPVLDSDGSFFLVSRLTVDKSRWQEGNVFSCSVMHEALHNHYTQKSLSLSLGKRSEVQLLESGGGLVQPGGSLRLSCAASGFTFGNYDMAWVRQAPGKRPEWVSSIDTGGDITHYADSVKGRFTISRDNAKNTLYLQMNSLRPEDTAVYWCATDEEYALGPNEFDYYGQGTLVTVSS | – | 6
4 | CIgG4E2A1(G4S)1 (Fc fusion) chain 1: GPPCPPCPAPEFLGGPSVFLFPPKPKDTLMISRTPEVTCVVVDVSQEDPEVQFNWYVDGVEVHNAKTKPREEQFNSTYRVVSVLTVLHQDWLNGKEYKCKVSNKGLPSSIEKTISKAKGQPREPQVYTLPPCQEEMTKNQVSLWCLVKGFYPSDIAVEWESNGQPENNYKTTPPVLDSDGSFFLYSRLTVDKSRWQEGNVFSCSVMHEALHNHYTQKSLSLSLGKGGGGSDVQLQESGGGLVQAGGSLRLSCAASGRTISRYAVGWFRRPPAKEREFIGINWSGGSTTYADSAEGRFIISRDNAKNTVYLQMNSLKPEDTAVYYCAVPSVLVQGGISNPSQYDYWGQGTQVTVS chain 2: GPPCPPCPAPEFLGGPSVFLFPPKPKDTLMISRTPEVTCVVVDVSQEDPEVQFNWYVDGVEVHNAKTKPREEQFNSTYRVVSVLTVLHQDWLNGKEYKCKVSNKGLPSSIEKTISKAKGQPREPQVCTLPPSQEEMTKNQVSLSCAVKGFYPSDIAVEWESNGQPENNYKTTPPVLDSDGSFFLVSRLTVDKSRWQEGNVFSCSVMHEALHNHYTQKSLSLSLGKGGGGSEVQLLESGGGLVQPGGSLRLSCAASGFTFGNYDMAWVRQAPGKRPEWVSSIDTGGDITHYADSVKGRFTISRDNAKNTLYLQMNSLRPEDTAVYWCATDEEYALGPNEFDYYGQGTLVTVSS | – | 22

Results, then the binder that gave them:

Row | EC50 [nM] | Max effect/effect 1 µM [%] | Binder
5 | 2 | 97 | NIgG4E2A1(G4S)3 (Fc fusion) chain 1: DVQLQESGGGLVQAGGSLRLSCAASGRTISRYAVGWFRRPPAKEREFIGINWSGGSTTYADSAEGRFIISRDNAKNTVYLQMNSLKPEDTAVYYCAVPSVLVQGGISNPSQYDYWGQGTQVTVSGGGGSGGGGSGGGGSGPPCPPCPAPEFLGGPSVFLFPPKPKDTLMISRTPEVTCVVVDVSQEDPEVQFNWYVDGVEVHNAKTKPREEQFNSTYRVVSVLTVLHQDWLNGKEYKCKVSNKGLPSSIEKTISKAKGQPREPQVYTLPPCQEEMTKNQVSLWCLVKGFYPSDIAVEWESNGQPENNYKTTPPVLDSDGSFFLYSRLTVDKSRWQEGNVFSCSVMHEALHNHYTQKSLSLSLGK chain 2: EVQLLESGGGLVQPGGSLRLSCAASGFTFGNYDMAWVRQAPGKRPEWVSSIDTGGDITHYADSVKGRFTISRDNAKNTLYLQMNSLRPEDTAVYWCATDEEYALGPNEFDYYGQGTLVTVSSGGGGSGGGGSGGGGSGPPCPPCPAPEFLGGPSVFLFPPKPKDTLMISRTPEVTCVVVDVSQEDPEVQFNWYVDGVEVHNAKTKPREEQFNSTYRVVSVLTVLHQDWLNGKEYKCKVSNKGLPSSIEKTISKAKGQPREPQVCTLPPSQEEMTKNQVSLSCAVKGFYPSDIAVEWESNGQPENNYKTTPPVLDSDGSFFLVSRLTVDKSRWQEGNVFSCSVMHEALHNHYTQKSLSLSLGK
6 | 532 | 45 | CIgG4E2A1(G4S)3 (Fc fusion) chain 1: GPPCPPCPAPEFLGGPSVFLFPPKPKDTLMISRTPEVTCVVVDVSQEDPEVQFNWYVDGVEVHNAKTKPREEQFNSTYRVVSVLTVLHQDWLNGKEYKCKVSNKGLPSSIEKTISKAKGQPREPQVYTLPPCQEEMTKNQVSLWCLVKGFYPSDIAVEWESNGQPENNYKTTPPVLDSDGSFFLYSRLTVDKSRWQEGNVFSCSVMHEALHNHYTQKSLSLSLGKGGGGSGGGGSGGGGSDVQLQESGGGLVQAGGSLRLSCAASGRTISRYAVGWFRRPPAKEREFIGINWSGGSTTYADSAEGRFIISRDNAKNTVYLQMNSLKPEDTAVYYCAVPSVLVQGGISNPSQYDYWGQGTQVTVS chain 2: GPPCPPCPAPEFLGGPSVFLFPPKPKDTLMISRTPEVTCVVVDVSQEDPEVQFNWYVDGVEVHNAKTKPREEQFNSTYRVVSVLTVLHQDWLNGKEYKCKVSNKGLPSSIEKTISKAKGQPREPQVCTLPPSQEEMTKNQVSLSCAVKGFYPSDIAVEWESNGQPENNYKTTPPVLDSDGSFFLVSRLTVDKSRWQEGNVFSCSVMHEALHNHYTQKSLSLSLGKGGGGSGGGGSGGGGSEVQLLESGGGLVQPGGSLRLSCAASGFTFGNYDMAWVRQAPGKRPEWVSSIDTGGDITHYADSVKGRFTISRDNAKNTLYLQMNSLRPEDTAVYWCATDEEYALGPNEFDYYGQGTLVTVSS
7 | 2.3 | 95 | NIgG4E2A1(G4S)1 (Fc fusion) chain 1: DVQLQESGGGLVQAGGSLRLSCAASGRTISRYAVGWFRRPPAKEREFIGINWSGGSTTYADSAEGRFIISRDNAKNTVYLQMNSLKPEDTAVYYCAVPSVLVQGGISNPSQYDYWGQGTQVTVSGGGGSGPPCPPCPAPEFLGGPSVFLFPPKPKDTLMISRTPEVTCVVVDVSQEDPEVQFNWYVDGVEVHNAKTKPREEQFNSTYRVVSVLTVLHQDWLNGKEYKCKVSNKGLPSSIEKTISKAKGQPREPQVYTLPPCQEEMTKNQVSLWCLVKGFYPSDIAVEWESNGQPENNYKTTPPVLDSDGSFFLYSRLTVDKSRWQEGNVFSCSVMHEALHNHYTQKSLSLSLGK chain 2: EVQLLESGGGLVQPGGSLRLSCAASGFTFGNYDMAWVRQAPGKRPEWVSSIDTGGDITHYADSVKGRFTISRDNAKNTLYLQMNSLRPEDTAVYWCATDEEYALGPNEFDYYGQGTLVTVSSGGGGSGPPCPPCPAPEFLGGPSVFLFPPKPKDTLMISRTPEVTCVVVDVSQEDPEVQFNWYVDGVEVHNAKTKPREEQFNSTYRVVSVLTVLHQDWLNGKEYKCKVSNKGLPSSIEKTISKAKGQPREPQVCTLPPSQEEMTKNQVSLSCAVKGFYPSDIAVEWESNGQPENNYKTTPPVLDSDGSFFLVSRLTVDKSRWQEGNVFSCSVMHEALHNHYTQKSLSLSLGK
8 | 1.9 | 98 | NIgG4E2A1(G4S)2 (Fc fusion) chain 1: DVQLQESGGGLVQAGGSLRLSCAASGRTISRYAVGWFRRPPAKEREFIGINWSGGSTTYADSAEGRFIISRDNAKNTVYLQMNSLKPEDTAVYYCAVPSVLVQGGISNPSQYDYWGQGTQVTVSGGGGSGGGGSGPPCPPCPAPEFLGGPSVFLFPPKPKDTLMISRTPEVTCVVVDVSQEDPEVQFNWYVDGVEVHNAKTKPREEQFNSTYRVVSVLTVLHQDWLNGKEYKCKVSNKGLPSSIEKTISKAKGQPREPQVYTLPPCQEEMTKNQVSLWCLVKGFYPSDIAVEWESNGQPENNYKTTPPVLDSDGSFFLYSRLTVDKSRWQEGNVFSCSVMHEALHNHYTQKSLSLSLGK chain 2: EVQLLESGGGLVQPGGSLRLSCAASGFTFGNYDMAWVRQAPGKRPEWVSSIDTGGDITHYADSVKGRFTISRDNAKNTLYLQMNSLRPEDTAVYWCATDEEYALGPNEFDYYGQGTLVTVSSGGGGSGGGGSGPPCPPCPAPEFLGGPSVFLFPPKPKDTLMISRTPEVTCVVVDVSQEDPEVQFNWYVDGVEVHNAKTKPREEQFNSTYRVVSVLTVLHQDWLNGKEYKCKVSNKGLPSSIEKTISKAKGQPREPQVCTLPPSQEEMTKNQVSLSCAVKGFYPSDIAVEWESNGQPENNYKTTPPVLDSDGSFFLVSRLTVDKSRWQEGNVFSCSVMHEALHNHYTQKSLSLSLGK
